Laboratory results published in paper PMC3739435 (Peptides, 2013).
Square brackets hold non-standard residues; d marks the D form. Ends that are not written are not given here. * marks the point of attachment. Benzoyl(4-benzoyl) = O=C(c1ccccc1)c1ccc(C(=O)*)cc1; Bpa = N[C@@H](Cc1ccc(C(=O)c2ccccc2)cc1)C(=O)O; Phe(NO2) = nitro-phenylalanine (NO2-Phe); Desaminotyrosyl = O=C(CCc1ccc(O)cc1)*; Nle = CCCC[C@H](N)C(=O)O

T1: hemagglutinin-tagged wild type human type 2 CCK receptor (human, UniProt P32239 1-447)
T1 sequence (looked up): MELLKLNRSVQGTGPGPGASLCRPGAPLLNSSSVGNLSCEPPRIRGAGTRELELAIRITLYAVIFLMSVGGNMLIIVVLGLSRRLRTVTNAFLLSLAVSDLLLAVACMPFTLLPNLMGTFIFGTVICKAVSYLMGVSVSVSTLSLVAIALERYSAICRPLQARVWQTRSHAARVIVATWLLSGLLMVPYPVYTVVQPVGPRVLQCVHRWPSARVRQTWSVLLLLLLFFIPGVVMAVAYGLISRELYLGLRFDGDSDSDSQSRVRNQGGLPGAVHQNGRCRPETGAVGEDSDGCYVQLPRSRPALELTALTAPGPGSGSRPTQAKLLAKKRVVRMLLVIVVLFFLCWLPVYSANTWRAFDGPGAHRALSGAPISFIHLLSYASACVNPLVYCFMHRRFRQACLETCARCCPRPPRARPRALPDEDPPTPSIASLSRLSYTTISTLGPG


Key:
[1] = biological target: T1, hemagglutinin-tagged wild type human …; assay: radioligand binding
[2] = biological target: T1, hemagglutinin-tagged wild type human …; assay: cell-based or functional assay

Binder | IC50 [1] [nM] | intracellular calcium responses in CHO-CCK2R cells, EC50 [2] [nM]
[Desaminotyrosyl]GDY[Nle]G[Bpa][Nle]DF (ends and bridges not checked) [(des-amino-Tyr)-Gly-[(Nle28,Bpa30,Nle31)CCK-26-33]] | > 1000 | 
[Desaminotyrosyl]G[Phe(NO2)]Y[Nle]GW[Nle]DF (ends and bridges not checked) [(des-amino-Tyr)-Gly-[(NO2-Phe26,Nle28,Nle31)CCK-26-33]] |  | > 1000

Other lines, results leading:

IC50 [1] [nM] | intracellular calcium responses in CHO-CCK2R cells, EC50 [2] [nM] | Binder
> 1000 | > 1000 | [Desaminotyrosyl]GDY[Nle]GW[Nle][Bpa]F (ends and bridges not checked) [(des-amino-Tyr)-Gly-[(Nle28,Nle31,Bpa32)CCK-26-33]]
> 1000 |  | [Desaminotyrosyl]GDY[Nle]GWK(Benzoyl(4-benzoyl))DF (ends and bridges not checked) [(des-amino-Tyr)-Gly-[(Nle28,(BzBz)Lys31)CCK-26-33]]
